{
  "source": "paper doi:10.1101/2024.06.06.597810",
  "about": "(bioRxiv, 2024)",
  "molecular_target": "T1, Biotin-labeled BatCoV-BtkY72 stem helix peptide (Bat SARS-related coronavirus BtKY72 …, UniProt A0A3Q8AKM0, biotin (position not given))",
  "T1 construct": "source: synthetic peptide, bought: GenScript",
  "experiment": "BLI",
  "conditions": "both partners purified",
  "data": [
    {"binder": "S2P6 UCA VH M48I/S56H double mutant Fab (Fab, V domains shown, source: Expi293F, co-transfected, purified (IgG-CH1-XL beads)) VH: QVQLVQSGAEVKKPGASVKVSCKASGYTFTSYYMHWVRQAPGQGLEWIGIINPSGGHTSYAQKFQGRVTMTRDTSTSTVYMELSSLRSEDTAVYYCARGSPKGAFDYWGQGTLVTVSS VL: not shown", "values": [
      {"measurement": "binding result", "value": "binds"}
    ]},
    {"binder": "S2P6 UCA VH Y32Q/M48I/S56H triple mutant Fab (Fab, V domains shown, source: Expi293F, co-transfected, purified (IgG-CH1-XL beads)) VH: QVQLVQSGAEVKKPGASVKVSCKASGYTFTSQYMHWVRQAPGQGLEWIGIINPSGGHTSYAQKFQGRVTMTRDTSTSTVYMELSSLRSEDTAVYYCARGSPKGAFDYWGQGTLVTVSS VL: not shown", "values": [
      {"measurement": "binding result", "value": "binds"}
    ]}
  ]
}
